Reference: US20120225065A1

Target: Human IL-21 receptor on Baf3/KZ134/huIL-21R cells (human) (UniProt Q9HBE5)
Test: cell-based or functional assay

Human IL-21 receptor on Baf3/KZ134/huIL-21R cells (human), sequence (Q9HBE5 20-538): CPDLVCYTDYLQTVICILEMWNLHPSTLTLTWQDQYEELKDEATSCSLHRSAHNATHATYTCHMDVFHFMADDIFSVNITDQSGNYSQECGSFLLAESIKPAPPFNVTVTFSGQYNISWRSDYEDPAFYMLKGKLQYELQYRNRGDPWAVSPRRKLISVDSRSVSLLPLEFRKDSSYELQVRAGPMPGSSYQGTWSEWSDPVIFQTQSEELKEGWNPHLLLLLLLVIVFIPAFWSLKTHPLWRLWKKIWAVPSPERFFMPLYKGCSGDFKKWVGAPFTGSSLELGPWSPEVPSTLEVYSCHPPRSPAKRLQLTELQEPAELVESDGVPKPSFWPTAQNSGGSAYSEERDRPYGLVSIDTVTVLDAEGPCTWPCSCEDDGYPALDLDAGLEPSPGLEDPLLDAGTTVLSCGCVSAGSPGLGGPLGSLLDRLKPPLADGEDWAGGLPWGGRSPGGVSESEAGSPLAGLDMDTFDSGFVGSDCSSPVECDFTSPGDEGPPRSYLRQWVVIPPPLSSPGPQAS

- EC90 in STAT-Luciferase assay: 1.08 nM
Substance: Recombinant rat IL-21 (from UniProt A3QPB9 18-146) (ligand)
